Assay results published in US9403875B2, “Cage-like bifunctional chelators, copper-64 radiopharmaceuticals and PET imaging using the same” (UNIVERSITY OF SOUTHERN CALIFORNIA, priority 2009, dated 2016).
Like-named read-outs stand apart in the source and are kept apart here. Blank lines part the entries; values can stand above or below the compound they belong to.

How the values were obtained:
[1] = test system: U87 MG human glioblastoma cell line (integrin αvβ3-positive); experiment: Cell uptake study in U87 MG cells; type: cell-based; conditions: blocking with excess cold cyclic RGD
Method: U87 MG human glioblastoma cell line (integrin αvβ3-positive) was obtained from the American Type Culture Collection (ATCC, Manassas, Va.) and maintained under standard conditions according to ATCC as following: The U87 MG glioma cells were grown in Gibco's Dulbecco's medium supplemented with 10% fetal bovine serum (FBS), 100 IU/mL penicillin, and 100 μg/mL streptomycin (Invitrogen Co, Carlsbad, Calif.), at 37° C. in humidified atmosphere containing 5% CO2. The U87 MG glioma cells were grown in culture until sufficient cells were available.
The cell uptake study was performed as described in the literature with some modifications. […] The tumor cells were then washed three times with chilled PBS and harvested by 0.1 N NaOH solution containing 0.5% sodium dodecyl sulfate (SDS). The cell suspensions were collected and measured in the gamma counter.

[2] = In vitro stability of 64Cu-labeled RGD conjugates in PBS, FBS and mouse serum; type: in vitro ADME; conditions: 37° C., 24 h incubation; for remaining at 24 h, 3.7 MBq/mL: read-out: radiochemical purity / tracer remained intact
Method: After incubated at 37° C. for 3, 18, and 24 h, an aliquot of the mixture was removed from the PBS solution and the radiochemical purity was determined with HPLC. For the solution of FBS and mouse serum, the aliquots were added to 100 μL PBS with 50% TFA. After centrifugation, the upper solution was taken and filtered for HPLC analysis.

[3] = Biodistribution by direct tissue sampling in U87 MG tumor bearing nude mice; conditions: athymic nude, mouse, in vivo, 0.37 MBq, total radioactivity
Method: All mice were sacrificed and dissected at 20 h after the injection of the tracers. Blood, U87 MG tumor, major organs, and tissues were collected and weighed wet. The radioactivity in the tissues was measured using the gamma counter. The results were presented as percentage injected dose per gram of tissue (% ID/g). For each mouse, the radioactivity of the tissue samples was calibrated against a known aliquot of the injected activity. Mean uptake (% ID/g) for each group of animals was calculated with standard deviations.
To validate the accuracy of small animal PET quantification, we also performed a biodistribution experiment by using the direct tissue sampling technique. The data shown as the percentage administered activity (injected dose) per gram of tissue (% ID/g) in FIG. 19A. Both ^64Cu-AmBaSar-RGD and ^64Cu-DOTA-RGD mainly accumulated in kidneys, liver, stomach, intestine, and tumor. […] This difference was consistent with the excretion pattern from the microPET imaging results.

[4] = MicroPET imaging of U87 MG tumor-bearing nude mice; type: in vivo, athymic nude mice; conditions: athymic nude, mouse, in vivo, iv, 11.1 MBq, total radioactivity
Method: (§1) Athymic nude mice (about 10-20 weeks old, with a body weight of 25-35 g) were obtained from Harlan (Charles River, Mass.). All animal experiments were performed according to a protocol approved by University of Southern California Institutional Animal Care and Use Committee. The U87 MG human glioma xenograft model was generated by subcutaneous injection of 5×10^6 U87 MG human glioma cells into the front flank of athymic nude mice. The tumors were allowed to grow 3-5 weeks until 200-500 mm^3 in volume. Tumor growth was followed by caliper measurements of the perpendicular dimensions.
(§2) MicroPET scans and imaging analysis were performed using a rodent scanner (microPET R4; Siemens Medical Solutions) as previously reported (26). Li, Z., Cai, W., Cao, Q., Chen, K., Wu, Z., He, L., and Chen, X. (2007) ^64Cu-labeled tetrameric and octameric RGD peptides for small-animal PET of tumor αvβ3 integrin expression. J Nucl Med 48, 1162-71. […] Ten minute static scans were acquired at 1, 2, 4, and 20 h post injection. The images were reconstructed by a 2-dimensional ordered-subsets expectation maximum (OSEM) algorithm. For each microPET scan, regions of interest were drawn over the tumor, normal tissue, and major organs on the decay-corrected whole-body coronal images. The radioactivity concentration (accumulation) within the tumor, muscle, liver, and kidneys were obtained from the mean value within the multiple regions of interest and then converted to % ID/g.

[5] = test system: U87 MG human glioma xenograft tumors; experiment: MicroPET imaging of U87 MG tumor-bearing nude mice; type: in vivo, athymic nude mice; conditions: for uptake in U87 MG tumors: microPET
Method: as §1, §2

[6] = Log P of 64Cu-labeled RGD conjugates (1-octanol/PBS); type: physicochemical; conditions: pH 7.4, read-out: log P (octanol/water partition coefficient)
Method: After vigorously vortexing for 10 min, the vial was centrifuged for 5 min to ensure the complete separation of layers. Then, 3×10 μL of each layer was pipetted into other test tubes and radioactivity was measured using a gamma counter (Perkin-Elmer Packard Cobra). The measurement was repeated three times, and Log P values were calculated according to a known formula.

[7] = Metabolic stability in U87 MG tumor-bearing mouse (radio-HPLC of blood and tissue homogenates); type: in vivo, athymic nude mouse; conditions: 1 h post injection, i.v.
Method: The blood was collected and immediately centrifuged for 5 min at 13,200 rpm, and the upper serum solution was added to 100 μL PBS solution containing 50% TFA, followed by mixing and centrifugation for 10 min, and the upper solution was then taken out and filtered for HPLC analysis. Liver, kidneys, and tumor were homogenized using a homogenizer, suspended in 1 mL of PBS buffer, and centrifuged for 10 min at 14,000 rpm, respectively. For each sample, after removal of the supernatant, the solution was added to 100 μL PBS solution containing 50% TFA, followed by mixing and centrifugation for 10 min, and the upper solution was then taken and filtered for HPLC analysis. Radioactivity was monitored using a solid-state radiation detector. The eluent was also collected using a fraction collector (1.5 min/fraction) and the radioactivity of each fraction was measured with the γ counter.

[8] = Biodistribution of radiolabeled BFCs in Balb/c mice; type: in vivo
Method: The biodistribution of ^64Cu-AmBaSar and ^64Cu-DOTA were assessed in Balb/c mice. Each animal was sacrificed at the time interval 2 h and the organs dissected. The values of percent injected dose/gram (ID/g %) in different organs were compared and illustrated in FIG. 13. The ^64Cu-AmBaSar cleared rapidly from the blood and predominantly through the kidneys. After 2 h, the kidney and liver uptake reached 1.09±0.27, 0.14±0.01% ID/g, respectively, which is consistent with the excretion pattern from the microPET imaging results. The ^64Cu-DOTA cleared through the kidney and liver, with uptake reached 1.28±0.41, 1.25±0.09, respectively, by 2 h.
For biodistribution studies, one group of mice (Balb/c, n=3) was injected intravenously with the radiotracer ^64Cu-AmBaSar (10 μCi, 100 μL). Another group of mice was injected similarly with ^64Cu-DOTA (10 μCi, 100 μL). Activity injected into each mouse was measured in a dose calibrator (Capintec). After inhalation anesthesia, animals were sacrificed at 2 h postinjection. Tissues and organs of interest were separated and weighed. Radioactivity in each organ was measured using a gamma counter, and radioactivity uptake was expressed as % ID/g. Mean uptake (% ID/g) for each group of animals was calculated with standard deviations.

[9] = Lipophilicity (octanol/water partition coefficient) of 64Cu-AmBaSar and 64Cu-DOTA; type: physicochemical; conditions: 1-octanol/PBS, pH 7.4
Method: Information about the lipophilicity of the ^64Cu-AmBaSar and ^64Cu-DOTA was obtained by measuring their partitioning in a 1-octanol/water system. Counts in samples were used to determine partition coefficients (log P) values, calculated using a known formula. The log P values were measured at pH 7.4 in PBS. The log P value of ^64Cu-AmBaSar is −2.6, and the corresponding value of ^64Cu-DOTA is −2.3. Both ^64Cu-AmBaSar and ^64Cu-DOTA are hydrophilic.
The partition coefficient value was expressed as log P. Log P of ^64Cu-AmBaSar or ^64Cu-DOTA was determined by measuring the distribution of radioactivity in 1-octanol and PBS. A 5 μL sample of ^64Cu-AmBaSar or ^64Cu-DOTA in PBS was added to a vial containing 1 mL each of 1-octanol and PBS. After vortexing for 5 min, the vial was centrifuged for 5 min to ensure complete separation of layers. Then, 5 μL of each layer was pipetted into other test tubes and radioactivity was measured using a gamma counter (Packard). The measurement was repeated three times.

[10] = MicroPET imaging of radiolabeled BFCs in Balb/c mice; type: in vivo; conditions: between 30 min and 2 hours, micro-PET region of interest quantification
Method: MicroPET imaging and biodistribution studies were performed with the non-targeted ^64Cu-AmBaSar and ^64Cu-DOTA complexes to allow a comparison of their base-line organ uptake and clearance properties. After 30 min, the radioactivity quickly cleared from muscle and blood, and mainly localized in the bladder and kidneys. Regarding ^64Cu-DOTA, the radioactivity mainly localized in the bladder, kidneys, and liver.
MicroPET imaging and biodistribution of the radiolabeled BFCs were performed on Balb/c mice to evaluate their in vivo properties. Animals (Balb/c, n=2) were injected with 0.3 mCi ^64Cu-AmBaSar or ^64Cu-DOTA through the tail vein. PET imaging (10-min static scans) was performed using a microPET R4 scanner (Concorde Microsystems, Inc, Knoxville, Tenn.), with 120 transaxial planes and spatial resolution of 1.2 mm, at 30 min and 2 h postinjection. The microPET data were reconstructed using the ordered subsets expectation maximization (OSEM) algorithm using the microPET Manager Software (CTI Concorde Microsystems, Inc, Knoxville, Tenn.). Images were then analyzed using the Acquisition Sinogram Image Processing (ASIPro) software (CTI Concorde Microsystems, Inc, Knoxville, Tenn.).

[11] = 2 h postinjection, Balb/c mice, i.v.

SMILES: N=C(N)NCCC[C@@H]1NC(=O)[C@H](CCCCNC(=O)c2ccc(CNC34CNCCNCC(N)(CNCCNC3)CNCCNC4)cc2)NC(=O)[C@@H](Cc2ccc(O)cc2)NC(=O)[C@H](CC(=O)O)NC(=O)CNC1=O [^64Cu-AmBaSar-RGD, metal not drawn]
binding to U87 MG cells in presence of excess cold cyclic RGD peptide [1]: efficiently blocked | radiochemical purity / tracer remained intact ([2]; PBS or FBS): more than 97% | radiochemical purity / tracer remained intact ([2]; mouse serum): > 95% | remaining at 24 h, 3.7 MBq/mL ([2]; mouse serum): > 95% | remaining at 24 h, 3.7 MBq/mL ([2]; serum, pH 7.4, PBS or FBS): > 97% | tissue uptake at 20 h ([3]; direct tissue sampling, 20 h p.i., read-out: kidneys uptake): 1.51 ± 0.27 %ID/g | tissue uptake at 20 h ([3]; direct tissue sampling, 20 h p.i., read-out: liver uptake): 0.55 ± 0.06 %ID/g | tissue uptake at 1 h ([4]; microPET, 1 h p.i., read-out: liver uptake): 0.89 ± 0.13 %ID/g | tissue uptake at 1 h ([4]; microPET, 1 h p.i., read-out: renal uptake): 2.83 ± 0.77 %ID/g | tissue uptake at 2 h ([4]; microPET, 2 h p.i., read-out: liver uptake): 0.76 ± 0.13 %ID/g | tissue uptake at 2 h ([4]; microPET, 2 h p.i., read-out: renal uptake): 2.68 ± 0.55 %ID/g | tissue uptake at 4 h ([4]; microPET, 4 h p.i., read-out: liver uptake): 0.75 ± 0.14 %ID/g | tissue uptake at 4 h ([4]; microPET, 4 h p.i., read-out: renal uptake): 2.49 ± 0.5 %ID/g | tissue uptake at 20 h ([4]; microPET, 20 h p.i., read-out: liver uptake): 0.64 ± 0.06 %ID/g | tissue uptake at 20 h ([4]; microPET, 20 h p.i., read-out: renal uptake): 1.43 ± 0.35 %ID/g | uptake in U87 MG tumors ([5]; 1 h p.i.): 2.04±0.14 % ID/g | uptake in U87 MG tumors ([5]; 4 h p.i.): 1.87±0.11 % ID/g | uptake in U87 MG tumors ([5]; 20 h p.i.): 0.97±0.05 % ID/g | logP [6]: -2.44 ± 0.12 | amount of intact tracer in the blood [7]: approximately 88% | amount of intact tracer in the kidneys [7]: ~98% | amount of intact tracer in the liver [7]: ~98% | amount of intact tracer in the tumor [7]: ~95%

SMILES: N=C(N)NCCC[C@@H]1NC(=O)[C@H](CCCCNC(=O)CN2CCN(CC(=O)O)CCN(CC(=O)O)CCN(CC(=O)O)CC2)NC(=O)[C@@H](Cc2ccc(O)cc2)NC(=O)[C@H](CC(=O)O)NC(=O)CNC1=O [^64Cu-DOTA-RGD, metal not drawn]
binding to U87 MG cells in presence of excess cold cyclic RGD peptide [1]: efficiently blocked | tissue uptake at 20 h ([3]; kidneys uptake): 0.98 ± 0.4 %ID/g | tissue uptake at 20 h ([3]; liver uptake): 2.16 ± 0.85 %ID/g | tissue uptake at 1 h ([4]; liver uptake): 2.28 ± 1.08 %ID/g | tissue uptake at 2 h ([4]; liver uptake): 2.31 ± 1.34 %ID/g | tissue uptake at 4 h ([4]; liver uptake): 2.15 ± 0.9 %ID/g | tissue uptake at 20 h ([4]; liver uptake): 2.52 ± 1.43 %ID/g | tissue uptake at 1 h ([4]; renal uptake): 1.52 ± 0.46 %ID/g | tissue uptake at 2 h ([4]; renal uptake): 1.33 ± 0.23 %ID/g | tissue uptake at 4 h ([4]; renal uptake): 1.55 ± 0.61 %ID/g | tissue uptake at 20 h ([4]; renal uptake): 1.58 ± 0.13 %ID/g | uptake in U87 MG tumors ([5]; 1 h p.i.): 2.03±0.10 % ID/g | uptake in U87 MG tumors ([5]; 2 h p.i.): 1.97±0.05 % ID/g | uptake in U87 MG tumors ([5]; 4 h p.i.): 1.88±0.29 % ID/g | uptake in U87 MG tumors ([5]; 20 h p.i.): 0.88±0.07 % ID/g | liver uptake compared with 64Cu-AmBaSar-RGD ([5]; mouse, in vivo): 2-3 times

liver uptake relative to 64Cu-AmBaSar ([8]; 2 h post injection): eight times higher | kidney uptake [8, 11]: 1.28±0.41 % ID/g | liver uptake [8, 11]: 1.25±0.09 % ID/g | log P [9]: −2.3 | decrease of renal activity [10]: 66%
SMILES: O=C([O-])CN1CCN(CC(=O)[O-])CCN(CC(=O)O)CCN(CC(=O)O)CC1.[64Cu+2] [^64Cu-DOTA]
